Residue numbers refer to the chain shown, from its start.
B1: Monoclonal anti-HIV-1 Env SF12 (IgG) (antibody, V domains shown)
VH: QVQLQESGPGLVKPSETLSVTCRVSGGSLDLYYWSWIRQPPGKGLQWIGFVYFDGSYGDYDPSLRSRVTISADMSKNQISLRLKSVTPADTAVYYCARLGPGGIFDRWTGHYGDKWLDPWGQGTLVTVSS
VL: QIDLTQSPRTLSLSAGERATLLCRASQSVSNVALAWYQHKPGQAPRLLLHEASTRATGIPDRFIGSGSGRDFTLTITSLEPEDFAVYYCQLSGRRLGQGTKVEIK
B2: Monoclonal anti-HIV-1 Env SF5 (IgG) (antibody, V domains shown)
VH: B1 VH with L31R, K43E, F50H, S71T, N77Y, S80I, K84R
VL: B1 VL with D3V, T54I, T57A, I64V, E80H, Q98P

Assays:
[1] = target: T1, YU2 gp140 foldon trimer (wild type) (HIV-1 group M subtype B isolate YU-2, UniProt P35961, stabilised); assay: ELISA; YU2 gp120/gp140 proteins coated on the plate at 2 μg/ml; IgG in a 1:3 dilution series from 4 or 10 μg/ml, 1 h at room temperature or 37°C, in 1% BSA in PBS; detected with anti-human IgG; conditions: both partners purified
T1 construct: also called uncleaved YU2 gp140 foldon trimer; YU2 gp140 WT; source: 293-6E, transiently transfected, purified (Ni-NTA)

[2] = target: T2, YU2 gp120 monomer (wild type) (HIV-1 group M subtype B isolate YU-2, UniProt P35961); assay: as above; conditions: both partners purified
T2 construct: also called monomeric YU2 gp120; YU2 gp120 WT; source: 293-6E, transiently transfected, purified (Ni-NTA)

Binder | binding result [1] | binding result [2]
B1 | binds | binds
B2 | binds | binds

From paper PMC6591006, “Broad and Potent Neutralizing Antibodies Recognize the Silent Face of the HIV Envelope” (Immunity, 2019)
